This note sets out measurements from patent publication US20240238445A1, “INHIBITORS AND USES THEREOF” (NEURACLE SCIENCE CO., LTD., priority 2021, published 2024).

B1: LRRC4B (453-713): FLAG-tagged LRRC4B deletion construct, amino acids 453-713 of SEQ ID NO: 2 (protein)
chain: VSAVDPVAAGGTGSGGGGPGGSGGVGGGSGGYTYFTTVTVETLETQPGEEALQPRGTEKEPPGPTTDGVWGGGRPGDAAGPASSSTTAPAPRSSRPTEKAFTVPITDVTENALKDLDDVMKTTKIIIGCFVAITFMAAVMLVAFYKLRKQHQLHKHHGPTRTVEIINVEDELPAASAVSVAAAAAVASGGGVGGDSHLALPALERDHLNHHHYVAAAFKAHYSSNPSGGGCGGKGPPGLNSIHEPLLFKSGSKENVQETQI
modifications: FLAG tag
B2: LRRC4B (364-576): FLAG-tagged LRRC4B deletion construct, amino acids 364-576 of SEQ ID NO: 2 (protein)
chain: PVIVEPPTDLNVTEGMAAELKCRTGTSMTSVNWLTPNGTLMTHGSYRVRISVLHDGTLNFTNVTVQDTGQYTCMVTNSAGNTTASATLNVSAVDPVAAGGTGSGGGGPGGSGGVGGGSGGYTYFTTVTVETLETQPGEEALQPRGTEKEPPGPTTDGVWGGGRPGDAAGPASSSTTAPAPRSSRPTEKAFTVPITDVTENALKDLDDVMKTTK
modifications: FLAG tag
B3: LRRC4B (157-713): FLAG-tagged LRRC4B deletion construct, amino acids 157-713 of SEQ ID NO: 2 (protein)
chain: LSKLRELWLRNNPIESIPSYAFNRVPSLRRLDLGELKRLEYISEAAFEGLVNLRYLNLGMCNLKDIPNLTALVRLEELELSGNRLDLIRPGSFQGLTSLRKLWLMHAQVATIERNAFDDLKSLEELNLSHNNLMSLPHDLFTPLHRLERVHLNHNPWHCNCDVLWLSWWLKETVPSNTTCCARCHAPAGLKGRYIGELDQSHFTCYAPVIVEPPTDLNVTEGMAAELKCRTGTSMTSVNWLTPNGTLMTHGSYRVRISVLHDGTLNFTNVTVQDTGQYTCMVTNSAGNTTASATLNVSAVDPVAAGGTGSGGGGPGGSGGVGGGSGGYTYFTTVTVETLETQPGEEALQPRGTEKEPPGPTTDGVWGGGRPGDAAGPASSSTTAPAPRSSRPTEKAFTVPITDVTENALKDLDDVMKTTKIIIGCFVAITFMAAVMLVAFYKLRKQHQLHKHHGPTRTVEIINVEDELPAASAVSVAAAAAVASGGGVGGDSHLALPALERDHLNHHHYVAAAFKAHYSSNPSGGGCGGKGPPGLNSIHEPLLFKSGSKENVQETQI
modifications: FLAG tag
B4: LRRC4B (36-713): FLAG-tagged LRRC4B deletion construct, amino acids 36-713 of SEQ ID NO: 2 (protein)
chain: AGGGGVAVTSAAGGGSPPATSCPVACSCSNQASRVICTRRDLAEVPASIPVNTRYLNLQENGIQVIRTDTFKHLRHLEILQLSKNLVRKIEVGAFNGLPSLNTLELFDNRLTTVPTQAFEYLSKLRELWLRNNPIESIPSYAFNRVPSLRRLDLGELKRLEYISEAAFEGLVNLRYLNLGMCNLKDIPNLTALVRLEELELSGNRLDLIRPGSFQGLTSLRKLWLMHAQVATIERNAFDDLKSLEELNLSHNNLMSLPHDLFTPLHRLERVHLNHNPWHCNCDVLWLSWWLKETVPSNTTCCARCHAPAGLKGRYIGELDQSHFTCYAPVIVEPPTDLNVTEGMAAELKCRTGTSMTSVNWLTPNGTLMTHGSYRVRISVLHDGTLNFTNVTVQDTGQYTCMVTNSAGNTTASATLNVSAVDPVAAGGTGSGGGGPGGSGGVGGGSGGYTYFTTVTVETLETQPGEEALQPRGTEKEPPGPTTDGVWGGGRPGDAAGPASSSTTAPAPRSSRPTEKAFTVPITDVTENALKDLDDVMKTTKIIIGCFVAITFMAAVMLVAFYKLRKQHQLHKHHGPTRTVEIINVEDELPAASAVSVAAAAAVASGGGVGGDSHLALPALERDHLNHHHYVAAAFKAHYSSNPSGGGCGGKGPPGLNSIHEPLLFKSGSKENVQETQI
modifications: FLAG tag
B5: LRRC4B (230-713): FLAG-tagged LRRC4B deletion construct, amino acids 230-713 of SEQ ID NO: 2 (protein)
chain: RLEELELSGNRLDLIRPGSFQGLTSLRKLWLMHAQVATIERNAFDDLKSLEELNLSHNNLMSLPHDLFTPLHRLERVHLNHNPWHCNCDVLWLSWWLKETVPSNTTCCARCHAPAGLKGRYIGELDQSHFTCYAPVIVEPPTDLNVTEGMAAELKCRTGTSMTSVNWLTPNGTLMTHGSYRVRISVLHDGTLNFTNVTVQDTGQYTCMVTNSAGNTTASATLNVSAVDPVAAGGTGSGGGGPGGSGGVGGGSGGYTYFTTVTVETLETQPGEEALQPRGTEKEPPGPTTDGVWGGGRPGDAAGPASSSTTAPAPRSSRPTEKAFTVPITDVTENALKDLDDVMKTTKIIIGCFVAITFMAAVMLVAFYKLRKQHQLHKHHGPTRTVEIINVEDELPAASAVSVAAAAAVASGGGVGGDSHLALPALERDHLNHHHYVAAAFKAHYSSNPSGGGCGGKGPPGLNSIHEPLLFKSGSKENVQETQI
modifications: FLAG tag
B6: LRRC4B (364-713): FLAG-tagged LRRC4B deletion construct, amino acids 364-713 of SEQ ID NO: 2 (protein)
chain: PVIVEPPTDLNVTEGMAAELKCRTGTSMTSVNWLTPNGTLMTHGSYRVRISVLHDGTLNFTNVTVQDTGQYTCMVTNSAGNTTASATLNVSAVDPVAAGGTGSGGGGPGGSGGVGGGSGGYTYFTTVTVETLETQPGEEALQPRGTEKEPPGPTTDGVWGGGRPGDAAGPASSSTTAPAPRSSRPTEKAFTVPITDVTENALKDLDDVMKTTKIIIGCFVAITFMAAVMLVAFYKLRKQHQLHKHHGPTRTVEIINVEDELPAASAVSVAAAAAVASGGGVGGDSHLALPALERDHLNHHHYVAAAFKAHYSSNPSGGGCGGKGPPGLNSIHEPLLFKSGSKENVQETQI
modifications: FLAG tag

The first assay addresses T1, FAM19A5 protein (Homo sapiens, UniProt Q7Z5A7). Nature of the assay: competitive inhibition ELISA; competitor: coated LRRC4B(36-576)-hFc.
Details: not given
(In general: An ELISA detects its analyte on a solid surface through an enzyme-linked reagent.)
With GYTYFTTVTVATLETQPGEE [FB-20[A10]], the Inhibition rate (%) was determined as 19.6%.

Take GYTYFTTATVETLETQPGEE [FB-20[A7]]: the Inhibition rate (%) turned out to be 26.8%. Still for that read-out and setting: with GYTYATTVTVETLETQPGEE [FB-20[A4]] the figure was 2.7%. On to GYTYFTAVTVETLETQPGEE [FB-20[A6]], for which the Inhibition rate (%) came out at 17.9%. In the case of GYTYFTTVAVETLETQPGEE [FB-20[A8]], the Inhibition rate (%) amounted to 3.9%.

As to GYTYFATVTVETLETQPGEE [FB-20[A5]], the Inhibition rate (%) was determined as 53.4%. In the case of GYTYFTTVTVETLATQPGEE [FB-20[A13]], the Inhibition rate (%) turned out to be 51.4%. Regarding GYTYFTTVTVEALETQPGEE [FB-20[A11]], the Inhibition rate (%) stood at 73.4%. As to GYTYFTTVTVETAETQPGEE [FB-20[A12]], the Inhibition rate (%) worked out at 73%. Consider GYTYFTTVTAETLETQPGEE [FB-20[A9]], for which the Inhibition rate (%) amounted to 21.5%.

A further assay has as its target T1, FAM19A5 protein. Nature of the assay: competitive inhibition ELISA; competitor: coated LRRC4B(453-576)-hFc.
Details: not given
As to GYTYFTTVTVATLETQPGEE [FB-20[A10]], the Inhibition rate (%) amounted to 6.4%.

Regarding GYTYFTTATVETLETQPGEE [FB-20[A7]], the Inhibition rate (%) is 7.9%.

With GYTYATTVTVETLETQPGEE [FB-20[A4]], the Inhibition rate (%) turned out to be 1.5%.

Consider GYTYFTAVTVETLETQPGEE [FB-20[A6]], for which the Inhibition rate (%) turned out to be 11%.

Take GYTYFTTVAVETLETQPGEE [FB-20[A8]]: the Inhibition rate (%) is -0.4%.

Turning to GYTYFATVTVETLETQPGEE [FB-20[A5]], the Inhibition rate (%) was 22.2%. The same measure, in the same setting: with GYTYFTTVTVETLATQPGEE [FB-20[A13]] the figure was 27.2%; with GYTYFTTVTVEALETQPGEE [FB-20[A11]], 50.3%. The same measure, in the same setting: under GYTYFTTVTVETAETQPGEE [FB-20[A12]] stands 56.2%; under GYTYFTTVTAETLETQPGEE [FB-20[A9]], 3.8%.

The target of a further assay is T1, FAM19A5 protein. Nature of the assay: Co-immunoprecipitation of FLAG-tagged LRRC4 family deletion constructs/fragments with recombinant FAM19A5 in HEK293 cells. The assay is classed as binding. The settings on record: HEK293 cells expressing FLAG-tagged construct, recombinant FAM19A5 1 μM 30 minutes; IP anti-FLAG, blot anti-FAM19A5 (3-2). How it is done:
To understand the interaction between FAM19A5 and members of the LRRC4 protein family, HEK293 cells were modified to express a FLAG-tagged member of the LRRC4 protein family, i.e., LRRC4C protein, LRRC4 protein, or LRRC4B protein. Then, the HEK293 cells or primary cortical neurons were treated with recombinant FAM19A5 protein (1 μM) for 30 minutes, and the binding between FAM19A5 protein and the different members of the LRRC4 protein family was assessed using both co-immunoprecipitation and immunofluorescence assays.
For the co-immunoprecipitation assay, cell lysates from the different FAM19A5-treated HEK293 cells were collected and immunoprecipitated with an anti-FLAG antibody, anti-FAM19A5 (1-65) antibody, or a human IgG antibody (control). Immunoprecipitated proteins were immunoblotted with anti-FLAG and anti-FAM19A5 (3-2) antibodies. For the immunofluorescence assay, the HEK293 cells treated with the recombinant FAM19A5 protein were immunostained with anti-FAM19A5 (3-2) (to detect FAM19A5 protein expression) and anti-FLAG antibodies (to detect member of the LRRC4 protein family). The primary cortical neurons treated with the recombinant FAM19A5 protein were immunostained with anti-FAM19A5 (3-2) and anti-LRRC4B antibodies. The nuclei were stained with Hoechst33342 (blue).
To determine the specific motif or domain of the LRRC4B protein that is responsible for the binding to a FAM19A5 protein, various FLAG-tagged LRRC4B deletion constructs were generated (see Table 6 below). HEK293 cells were transfected with the different deletion constructs and then treated with recombinant FAM19A5 protein as described in Example 1. Then, the cell lysates from the different HEK293 cells were immunoprecipitated with the anti-FLAG antibody. The immunoprecipitated proteins were immunoblotted with anti-FLAG and anti-FAM19A5 (3-2) antibodies.
As described in Example 2, all members of the LRRC4 protein family were capable of binding to FAM19A5 protein to varying degrees. Therefore, to compare the bindings domains, the amino acid sequences of the LRRC4B, LRRC4, and LRRC4C proteins were aligned. […] Therefore, to assess whether the corresponding positions of LRRC4 and LRRC4C were important in the binding of these proteins to FAM19A5 protein, cDNAs encoding either (i) LRRC4C protein fragment (amino acids 354-527 of SEQ ID NO: 3; SEQ ID NO: 66) or (ii) LRRC4 protein fragment (amino acids 353-527 of SEQ ID NO: 1; SEQ ID NO: 67) were constructed (see Table 7). HEK293 cells were transfected to express either of the protein fragments and then treated with recombinant FAM19A5 protein as described in Example 1. Then, the cell lysates from the different HEK293 cells were immunoprecipitated with the anti-FLAG antibody. The immunoprecipitated proteins were immunoblotted with anti-FLAG and anti-FAM19A5 (3-2) antibodies.
Target sequence in this assay (Q7Z5A7 44-132): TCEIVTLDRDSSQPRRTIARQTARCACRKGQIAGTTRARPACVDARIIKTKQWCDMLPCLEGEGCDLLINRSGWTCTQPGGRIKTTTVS
Take B1: the “binding to FAM19A5 protein (co-immunoprecipitation)” value (“binding to FAM19A5 protein” for short) is listed as “able to bind to the FAM19A5 protein with varying degree”. Turning to B2, the “binding to FAM19A5 protein” value is reported as “able to bind to the FAM19A5 protein with varying degree”. Turning to B3, the “binding to FAM19A5 protein” value is “able to bind to the FAM19A5 protein with varying degree”. On the same count and under the same terms, with B4 the entry was “able to bind to the FAM19A5 protein with varying degree”; with B5, “able to bind to the FAM19A5 protein with varying degree”; with B6, “able to bind to the FAM19A5 protein with varying degree”.
